Data on two molecules can be found in PMC11648230, “Structure–function analysis of tRNA t^6A-catalysis, assembly, and thermostability of Aquifex aeolicus TsaD2B2 tetramer in complex with TsaE” (The Journal of Biological Chemistry, 2024).

Series [1] has as its target T1, Thermotoga maritima TsaDB dimer variant (Thermotoga maritima, UniProt Q9WXZ2 1-327; Q9WZX7 2-206, E20A | D21A | L22A | E24A | S26A | Y27A | T28A | E30A | K31A).
T1 construct: TsaD, Thermotoga maritima, UniProt Q9WXZ2; TsaB, Thermotoga maritima, UniProt Q9WZX7; Preformed complex of m11 and m13; also called T. maritima TsaDB; TmTsaDB; source: E. coli BL21 (DE3) or Rosetta pLysS, co-expressed, purified (Ni-NTA, SEC); copies: 1 + 1
The experiment in a line: native gel or EMSA; native agarose-glycine gel (1.6%), 15 μg TsaD2B2 or variant and two-fold TsaE; gel and samples with 1 mM ATP and 2 mM MgCl2. The settings on record: both partners purified. For orientation: A gel shift assay detects complexes by their altered migration in electrophoresis.

Series [2] concerns the molecule itself. The experiment in a line: SEC; co-purified TsaD–TsaB complexes and variants; elution profiles compared with one another (tetramer against dimer); Superdex 200, after Ni-NTA. A general note: Size exclusion chromatography separates by hydrodynamic size, large species first.

T1 sequence (Q9WXZ2 whole entry, stated change not applied, one chain of several): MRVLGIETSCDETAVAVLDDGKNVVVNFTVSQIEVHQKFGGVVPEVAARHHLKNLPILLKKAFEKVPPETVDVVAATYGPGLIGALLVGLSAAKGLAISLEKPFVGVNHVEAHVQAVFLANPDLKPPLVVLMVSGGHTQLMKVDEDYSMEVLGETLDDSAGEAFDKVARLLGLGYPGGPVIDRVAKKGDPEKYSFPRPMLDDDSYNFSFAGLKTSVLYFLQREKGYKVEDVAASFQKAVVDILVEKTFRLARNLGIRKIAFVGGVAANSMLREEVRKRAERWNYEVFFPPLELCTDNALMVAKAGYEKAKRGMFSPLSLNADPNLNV

B1: Aquifex aeolicus TsaE (enzyme, UniProt O67011 1-133, looked up)
chain: MELLKEVILESEEDTYKLAEEIAQLLKGSEVICLRGTLGAGKTTFVKALAKALKVKNPSAVRSPTFTLVNEYETDKGKLIHIDLYRVPDFDYSEFIGEGILAVEWEERDKPCDIILEIEILDENKRKVRIYRK
notes: TsaE, Aquifex aeolicus, UniProt O67011; Monomer by SEC; also called AaTsaE; YjeE; source: E. coli BL21 (DE3) or Rosetta pLysS, purified (Ni-NTA, SEC)
With B1, in series [1], the binding result was “binds”.

B2: Thermotoga maritima TsaB (natural protein)
chain: NVLALDTSQRIRIGLRKGEDLFEISYTGEKKHAEILPVVVKKLLDELDLKVKDLDVVGVGIGPGGLTGLRVGIATVVGLVSPYDIPVAPLNSFEMTAKSCPADGVVLVARRARKGYHYCAVYLKDKGLNPLKEPSVVSDEELEEITKEFSPKIVLKDDLLISPAVLVEESERLFREKKTIHYYEIEPLYLQKSIAELNWEKKKRG
notes: TsaB, Thermotoga maritima, UniProt Q9WZX7; also called TmTsaB; source: E. coli BL21 (DE3) or Rosetta pLysS, co-expressed with TsaD (pET21a–BC14), purified (Ni-NTA, SEC)
As for B2, the binding result in series [2] is “binds”.
